In article PMC11575137 (BMC Biology, 2024):

Molecular target: KRAS^G12D mutant
Test: BLI binding kinetics assay, KRAS G12D mutant
Details: protein-protein; BLI (Fig. S5)

Kd: 51 µM
B1: GRB10: potential KRAS-interacting protein, UniProt Q13322 (protein, UniProt Q13322 1-594, looked up)
Growth factor receptor-bound …: MALAGCPDSFLHHPYYQDKVEQTPRSQQDPAGPGLPAQSDRLANHQEDDVDLEALVNDMNASLESLYSACSMQSDTVPLLQNGQHARSQPRASGPPRSIQPQVSPRQRVQRSQPVHILAVRRLQEEDQQFRTSSLPAIPNPFPELCGPGSPPVLTPGSLPPSQAAAKQDVKVFSEDGTSKVVEILADMTARDLCQLLVYKSHCVDDNSWTLVEHHPHLGLERCLEDHELVVQVESTMASESKFLFRKNYAKYEFFKNPMNFFPEQMVTWCQQSNGSQTQLLQNFLNSSSCPEIQGFLHVKELGKKSWKKLYVCLRRSGLYCSTKGTSKEPRHLQLLADLEDSNIFSLIAGRKQYNAPTDHGLCIKPNKVRNETKELRLLCAEDEQTRTCWMTAFRLLKYGMLLYQNYRIPQQRKALLSPFSTPVRSVSENSLVAMDFSGQTGRVIENPAEAQSAALEEGHAWRKRSTRMNILGSQSPLHPSTLSTVIHRTQHWFHGRISREESHRIIKQQGLVDGLFLLRDSQSNPKAFVLTLCHHQKIKNFQILPCEDDGQTFFSLDDGNTKFSDLIQLVDFYQLNKGVLPCKLKHHCIRVAL
